For four substances, Kd, KD1 (site 1, two‐binding site model) and KD2 (site 2, two‐binding site model) results are on record in paper PMC12375970, “Probing the extent of importin‐α targeting of the TAF8 NLS by eliminating its cationic net‐charge” (Protein Science : A Publication of the Protein Society, 2025).

Read-outs that look alike come from different tables or passages of the source.

One experiment deals with importin-beta (UniProt Q14974). Conditions: cited from earlier work.
Experiment [1] concerns the target importin-alpha (Homo sapiens) (UniProt P52292). Conditions: cited from earlier work.
Experiment [2] has as its target mouse importin‐α paralog 2 (mImpα2) lacking the importin‐β‐binding (IBB) domain, residues 70–529 (mouse) (UniProt P52293). The experiment can be described thus: MST; Monolith NT.115; RED‐NHS‐labelled mImpα2 at 60 nM titrated against NLS peptide 250 μM–7.6 nM; 20 mM Tris–HCl, 127 mM NaCl, pH 8.0, 0.5% Tween‐20; one‐binding site and two‐binding site model fits; apparent.

Experiment [3] addresses murine importin-α isoform 2 (mImpα2) lacking the importin-β-binding (IBB) domain (mouse) (UniProt P52293). Nature of the experiment: MST; Monolith NT.115; RED-NHS-labelled mImpα2 at 60 nM titrated against a serial 1:1 dilution (250 µM-7.6 nM) of NLS peptide with 0.5% Tween-20; 20 mM Tris-HCl, 127 mM NaCl, pH 8.0; three repeats, mean ± SD; fitted with one-binding-site, two-binding-site and Hill models; apparent affinity.

Experiment [4] has as its target importin-alpha (Homo sapiens) (UniProt P52292). Nature of the experiment: ITC. Conditions: cited from earlier work.

Chain of importin-beta (Q14974 whole entry): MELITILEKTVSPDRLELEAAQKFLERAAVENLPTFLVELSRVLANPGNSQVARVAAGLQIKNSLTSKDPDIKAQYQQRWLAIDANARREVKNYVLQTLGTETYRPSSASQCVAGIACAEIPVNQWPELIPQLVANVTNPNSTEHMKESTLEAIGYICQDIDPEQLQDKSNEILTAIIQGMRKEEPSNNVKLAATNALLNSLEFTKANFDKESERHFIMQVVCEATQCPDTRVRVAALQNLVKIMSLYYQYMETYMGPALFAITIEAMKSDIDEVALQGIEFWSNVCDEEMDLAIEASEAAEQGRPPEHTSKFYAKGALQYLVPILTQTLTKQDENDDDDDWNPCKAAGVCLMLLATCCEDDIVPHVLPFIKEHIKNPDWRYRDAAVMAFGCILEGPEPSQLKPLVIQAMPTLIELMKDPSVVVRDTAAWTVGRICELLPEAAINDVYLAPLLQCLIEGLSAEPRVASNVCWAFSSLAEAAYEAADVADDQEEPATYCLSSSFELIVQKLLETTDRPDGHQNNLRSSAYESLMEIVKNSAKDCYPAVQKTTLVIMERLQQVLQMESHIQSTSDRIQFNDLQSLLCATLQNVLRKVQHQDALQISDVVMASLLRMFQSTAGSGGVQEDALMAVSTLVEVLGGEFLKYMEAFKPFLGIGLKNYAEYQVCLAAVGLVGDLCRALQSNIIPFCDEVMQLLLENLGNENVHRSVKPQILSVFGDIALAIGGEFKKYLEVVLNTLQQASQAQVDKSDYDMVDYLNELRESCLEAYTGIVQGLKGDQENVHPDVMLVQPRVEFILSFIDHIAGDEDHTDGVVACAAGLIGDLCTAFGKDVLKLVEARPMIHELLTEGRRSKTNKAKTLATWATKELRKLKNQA

Consider “importin-alpha IBB domain IBB (from UniProt P52292)”, for which the Kd in the experiment with importin-beta was 0.01 µM; in experiment [1], 14 µM. Regarding “TAF8 NLS peptide (TAF8 residues 297–305, …)”, in experiment [2], the KD1 (site 1, two‐binding site model) was 1 µM and the KD2 (site 2, two‐binding site model) came out at 1 µM. With TAF8 NLS peptide (…, residues 297-305), the Kd in experiment [3] came to 1.21 µM.

On to TAF8 NLS 297-310 (from UniProt Q7Z7C8), for which, in experiment [4], the Kd was 10.4 µM.
